B1: G352D: modified GLD: SEQ ID NO: 1 with substitution G352D (protein, listed as Aspergillus terreus)
chain: MLGKLSFLSALSLAVAAPLSNSTSAKYDYIVIGGGTSGLAVANRLSEDPNVNVLILEAGGSVWNNPNVTNVDGYGLAFGSDIDWQYQSVNQPYGGNLSQVLRAGKALGGTSTINGMAYTRAEDVQIDAWETIGNTGWTWKNLFPYYRKSENFTVPTKSQTSLGASYEAGAHGHEGPLDVAFTQIESNNLTTYLNRTFQGMGLPWTEDVNGGKMRGFNLYPSTVNLEEYVREDAARAYYWPYKSRPNLHVLLNTFANRIVWDGEAHDGHITASGVEITSRNGTVRVINAEKEVIVSAGALKSPAILELSGIGNPSVLDKHNIPVKVNLPTVGENLQDQVNSHMDASGNTSISDTKAVSYPDVYDVFGDEAESVAKQIRANLKQYAADTAKANGNIMKAADLERLFEVQYDLIFKGRVPIAEVLNYPGSATSVFAEFWALLPFARGSVHIGSSNPAEFPVINPNYFMLDWDAKSYVAVAKYIRRSFESYPLSSIVKESTPGYDVIPRNASEQSWKEWVFDKNYRSNFHPVGTAAMMPREIGGVVDERLNVYGTTNVRVVDASVLPFQVCGHLVSTLYAVAERAADLIKADAGRR
modifications: SIGNAL (1)..(19)
B2: G426E: modified GLD: SEQ ID NO: 1 with substitution G426E (protein, listed as Aspergillus terreus)
chain: MLGKLSFLSALSLAVAAPLSNSTSAKYDYIVIGGGTSGLAVANRLSEDPNVNVLILEAGGSVWNNPNVTNVDGYGLAFGSDIDWQYQSVNQPYGGNLSQVLRAGKALGGTSTINGMAYTRAEDVQIDAWETIGNTGWTWKNLFPYYRKSENFTVPTKSQTSLGASYEAGAHGHEGPLDVAFTQIESNNLTTYLNRTFQGMGLPWTEDVNGGKMRGFNLYPSTVNLEEYVREDAARAYYWPYKSRPNLHVLLNTFANRIVWDGEAHDGHITASGVEITSRNGTVRVINAEKEVIVSAGALKSPAILELSGIGNPSVLDKHNIPVKVNLPTVGENLQDQVNSHMDASGNTSISGTKAVSYPDVYDVFGDEAESVAKQIRANLKQYAADTAKANGNIMKAADLERLFEVQYDLIFKGRVPIAEVLNYPESATSVFAEFWALLPFARGSVHIGSSNPAEFPVINPNYFMLDWDAKSYVAVAKYIRRSFESYPLSSIVKESTPGYDVIPRNASEQSWKEWVFDKNYRSNFHPVGTAAMMPREIGGVVDERLNVYGTTNVRVVDASVLPFQVCGHLVSTLYAVAERAADLIKADAGRR
modifications: SIGNAL (1)..(19)
B3: G426F: modified GLD: SEQ ID NO: 1 with substitution G426F (protein, listed as Aspergillus terreus)
chain: MLGKLSFLSALSLAVAAPLSNSTSAKYDYIVIGGGTSGLAVANRLSEDPNVNVLILEAGGSVWNNPNVTNVDGYGLAFGSDIDWQYQSVNQPYGGNLSQVLRAGKALGGTSTINGMAYTRAEDVQIDAWETIGNTGWTWKNLFPYYRKSENFTVPTKSQTSLGASYEAGAHGHEGPLDVAFTQIESNNLTTYLNRTFQGMGLPWTEDVNGGKMRGFNLYPSTVNLEEYVREDAARAYYWPYKSRPNLHVLLNTFANRIVWDGEAHDGHITASGVEITSRNGTVRVINAEKEVIVSAGALKSPAILELSGIGNPSVLDKHNIPVKVNLPTVGENLQDQVNSHMDASGNTSISGTKAVSYPDVYDVFGDEAESVAKQIRANLKQYAADTAKANGNIMKAADLERLFEVQYDLIFKGRVPIAEVLNYPFSATSVFAEFWALLPFARGSVHIGSSNPAEFPVINPNYFMLDWDAKSYVAVAKYIRRSFESYPLSSIVKESTPGYDVIPRNASEQSWKEWVFDKNYRSNFHPVGTAAMMPREIGGVVDERLNVYGTTNVRVVDASVLPFQVCGHLVSTLYAVAERAADLIKADAGRR
modifications: SIGNAL (1)..(19)

Assays:
[1] = Relative enzymatic activity of GLD (DCIP/1-m-PMS, plate reader, yeast culture supernatant) with proflavin hydrochloride present; type: biochemical; conditions: site-specific mutants, inhibitor final concentration 1 mM
Method in brief: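 Culture supernatant diluted and mixed with reagent of phosphate buffer pH 7.0, 1.0 M D-glucose, 3 mM DCIP, 3 mM 1-m-PMS and methanol (0.1:1:0.14:0.2:0.06). DCIP absorbance decrease at 600 nm followed; proflavin hydrochloride in methanol replaced methanol at 1 mM final. Activity expressed as % of inhibitor-free blank.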

[2] = Relative enzymatic activity of GLD (DCIP/1-m-PMS, plate reader, yeast culture supernatant) with 1,10-phenanthroline present; type: biochemical; conditions: site-specific mutants, inhibitor final concentration 1 mM
Method in brief: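 Inhibitor at 1 mM final substitutes for the methanol in the reagent, and the sample rate is expressed as % of the inhibitor-free blank. Rates come from ΔA600/min of DCIP with glucose and 1-m-PMS at pH 7.0, using supernatants of YPD-grown yeast clones (24 h, 30° C.).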

Molecule | Relative Activity [%] Proflavin hydrochloride [1] | Relative Activity [%] 1,10-Phenanthroline [2]
B1 | 42.7% | 87.8%
B2 | 32.6% | 64.4%
B3 | 51.8% | 60.5%

— US8969060B2, “Modified glucose dehydrogenase” (Ikeda Food Research Co., Ltd., priority 2011, dated 2015)
